T1: human CD23 (low affinity receptor for IgE, FceRII/CD23) on 8866 cells (human, UniProt P06734 1-321)
T1 construct: whole, on cells; Target of the first step cell ELISA (glutaraldehyde-fixed 8866 cells); also called cellular CD23; FCEL
T1 sequence (looked up): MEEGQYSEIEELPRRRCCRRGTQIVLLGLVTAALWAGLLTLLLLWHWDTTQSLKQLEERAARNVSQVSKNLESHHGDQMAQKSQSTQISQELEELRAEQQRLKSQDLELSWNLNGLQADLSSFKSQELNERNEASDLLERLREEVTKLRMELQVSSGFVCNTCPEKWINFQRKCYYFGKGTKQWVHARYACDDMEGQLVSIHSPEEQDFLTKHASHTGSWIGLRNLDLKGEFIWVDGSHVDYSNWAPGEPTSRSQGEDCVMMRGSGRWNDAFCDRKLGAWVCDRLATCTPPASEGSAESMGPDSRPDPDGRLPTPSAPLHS

B1: primate anti-human CD23 monoclonal antibody 6G5 (antibody, V domains shown)
VH: QLQLQESGPGVVKPSETLSLTCAVSGGSVSSSNWWTWIRQPPGKGLEWIGRISGSGGATNYNPSLKSRVIISQDTSKNQFSLNLNSVTAADTAVYYCARDWAQIAGTTLGFWGQGVLVTVSS
VL: QSAPTQPPSVSGSPGQSVTISCTGTSDDVGGYNYVSWYQHHPGKAPKLMIYDVAKRASGVSDRFSGSKSGNTASLTISGLQAEDEADYYCCSYTTSSTLLFGRGTRLTVLG
notes: Monoclonal antibody from a cynomolgus macaque heterohybridoma; also called primate 6G5
B2: primate anti-human CD23 monoclonal antibody 5E8 (antibody, V domains shown)
VH: EVQLVESGGGLAKPGGSLRLSCAASGFRFTFNNYYMDWVRQAPGQGLEWVSRISSSGDPTWYADSVKGRFTISRENANNTLFLQMNSLRAEDTAVYYCASLTTGSDSWGQGVLVTVSS
VL: DIQMTQSPSSLSASVGDRVTITCRASQDIRYYLNWYQQKPGKAPKLLIYVASSLQSGVPSRFSGSGSGTEFTLTVSSLQPEDFATYYCLQVYSTPRTFGQGTKVEIK
modifications: N-linked oligosaccharide at the asparagine of the heavy chain variable region glycosylation site (Kabat 75)
notes: Monoclonal antibody from a cynomolgus macaque heterohybridoma; also called primate 5E8

Key:
[1] = biological target: T1, human CD23 (low affinity receptor for …); test: cell ELISA on fixed 8866 cells, hybridoma supernatant
Method: The first step of the ELISA comprised the transferral of fifty microliters of supernatant from each well to ninety-six well plates which had previously been coated with 10⁵ 8866 cells (CD23 positive cell line) per well. These plates were made by first coating the plates with 50 μl of aqueous solution containing twenty μg/ml Poly L-Lysine (Sigma Catalog #P1399, MW 150,000-300,000) for thirty minutes at room temperature. The remaining solution was removed (“flicked out”) and the plates left to dry. Once dry, fifty μl of 8866 cells in PBS were transferred and spun at 600 g for five minutes. The 8866 cells were covalently bound to the plate by adding fifty μl 0.5% glutaraldehyde (Sigma Catalog #G6257) in phosphate buffered saline (PBS) for 15 minutes. The glutaraldehyde was removed (flicked out) and the plates blocked with one hundred fifty μl 100 mM glycine (Sigma Catalog #G-2879) in 0.1% BSA-PBS. […] The presence of the HRPO was detected by a color development after the addition of a TMB reagent (Kirkegaard & Perry, Gaithersburg, Md., Catalog #50-76-02 and 50-65-02), 100 μl/well. […] Optical density (OD) was measured at […] on a spectrophotometer (Titertek Multiscan). The OD values greater than two times the background were scored as positive.

[2] = biological target: T1, human CD23 (low affinity receptor for …); test: cell ELISA on 8866 cells

binding result [1]	binding result [2]	Binder
binds		B1
	binds	B2

— patent US20050054833A1 (published 2005)
